From patent US20260242839A1, “GLYCOSIDE PRODUCT BIOSYNTHESIS AND RECOVERY” (Manus Bio Inc., priority 2023, published 2026)

test system: steviol glycoside; assay: steviol glycoside bioconversion by E. coli expressing individual mutations of UGT SEQ ID NO: 14; type: cell-based; details: fold improvement of % conversion vs parent UGT SEQ ID NO: 14; stevia leaf extract and glucose fed; 37° C., 48 hr
Experimental: Fold improvement is with respect to % steviol glycoside conversion of the parent UGT enzyme of SEQ ID NO: 14. The UGT enzyme of SEQ ID NO: 15 has the following mutations from SEQ ID NO: 14: ins_A2_T3_RR, H59P, A238E, L417F. Stevia leaf extract and glucose were fed to the bioconversion strains. Bioconversion took place at 37° C. for 48 hr. Data were quantified by reverse phase LC DAD to quantify conversion of steviol glycosides.
Fold improvement (FI) is with respect to % steviol glycoside conversion.

Molecule	FI %Stevioside→rebE	FI %rebA→rebD
ins_A2_T3_RR: SEQ ID NO: 14 with insertion of Arg-Arg between A2 and T3 (protein) MARRTKNSSGMSLAERFWLTLSRSSLVVGRSCVEFEPETVPLLSTLRGKPITFLGLMPPLHEGRREDGEDATVRWLDAQPAKSVVYVALGSEVPLGVEKVHELALGLELAGTRFLWALRKPTGVSDADLLPAGFEERTRGRGVVATRWVPQMSILAHAAVGAFLTHCGWNSTIEGLMFGHPLIMLPITGDQGPNARLIEAKNAGLQVARNDGDGSFDREGVAAAIRAVAVEEESSKVFQAKAKKLQEIVADMACHERYIDGFIQQLRSYKDDSGYSSSYAAAAGMHVVICPWLAFGHLLPCLDLAQRLASRGHRVSFVSTPRNISRLPPVRPALAPLVAFVALPLPRVEGLPDGAESTNDVPHDRPDMVELHRRAFDGLAAPFSEFLGTACADWVIVDSFHHWAAAAALEHKVPCAMMLLGSAEMIASIADERLEHAETESPAAAGQGRPAAAPTFEVARMKLIR	2.4	2.0
V336I_F338L: mutation to UGT enzyme of SEQ ID NO: 14 (protein) MATKNSSGMSLAERFWLTLSRSSLVVGRSCVEFEPETVPLLSTLRGKPITFLGLMPPLHEGRREDGEDATVRWLDAQPAKSVVYVALGSEVPLGVEKVHELALGLELAGTRFLWALRKPTGVSDADLLPAGFEERTRGRGVVATRWVPQMSILAHAAVGAFLTHCGWNSTIEGLMFGHPLIMLPITGDQGPNARLIEAKNAGLQVARNDGDGSFDREGVAAAIRAVAVEEESSKVFQAKAKKLQEIVADMACHERYIDGFIQQLRSYKDDSGYSSSYAAAAGMHVVICPWLAFGHLLPCLDLAQRLASRGHRVSFVSTPRNISRLPPVRPALAPLIALVALPLPRVEGLPDGAESTNDVPHDRPDMVELHRRAFDGLAAPFSEFLGTACADWVIVDSFHHWAAAAALEHKVPCAMMLLGSAEMIASIADERLEHAETESPAAAGQGRPAAAPTFEVARMKLIR	1.5	1.4
M250D_A251E_C252V: mutation to UGT enzyme of SEQ ID NO: 14 (protein) MATKNSSGMSLAERFWLTLSRSSLVVGRSCVEFEPETVPLLSTLRGKPITFLGLMPPLHEGRREDGEDATVRWLDAQPAKSVVYVALGSEVPLGVEKVHELALGLELAGTRFLWALRKPTGVSDADLLPAGFEERTRGRGVVATRWVPQMSILAHAAVGAFLTHCGWNSTIEGLMFGHPLIMLPITGDQGPNARLIEAKNAGLQVARNDGDGSFDREGVAAAIRAVAVEEESSKVFQAKAKKLQEIVADDEVHERYIDGFIQQLRSYKDDSGYSSSYAAAAGMHVVICPWLAFGHLLPCLDLAQRLASRGHRVSFVSTPRNISRLPPVRPALAPLVAFVALPLPRVEGLPDGAESTNDVPHDRPDMVELHRRAFDGLAAPFSEFLGTACADWVIVDSFHHWAAAAALEHKVPCAMMLLGSAEMIASIADERLEHAETESPAAAGQGRPAAAPTFEVARMKLIR	1.5	1.4
S42E: mutation to UGT enzyme of SEQ ID NO: 14 (protein) MATKNSSGMSLAERFWLTLSRSSLVVGRSCVEFEPETVPLLETLRGKPITFLGLMPPLHEGRREDGEDATVRWLDAQPAKSVVYVALGSEVPLGVEKVHELALGLELAGTRFLWALRKPTGVSDADLLPAGFEERTRGRGVVATRWVPQMSILAHAAVGAFLTHCGWNSTIEGLMFGHPLIMLPITGDQGPNARLIEAKNAGLQVARNDGDGSFDREGVAAAIRAVAVEEESSKVFQAKAKKLQEIVADMACHERYIDGFIQQLRSYKDDSGYSSSYAAAAGMHVVICPWLAFGHLLPCLDLAQRLASRGHRVSFVSTPRNISRLPPVRPALAPLVAFVALPLPRVEGLPDGAESTNDVPHDRPDMVELHRRAFDGLAAPFSEFLGTACADWVIVDSFHHWAAAAALEHKVPCAMMLLGSAEMIASIADERLEHAETESPAAAGQGRPAAAPTFEVARMKLIR	1.8	1.3
F51W: mutation to UGT enzyme of SEQ ID NO: 14 (protein) MATKNSSGMSLAERFWLTLSRSSLVVGRSCVEFEPETVPLLSTLRGKPITWLGLMPPLHEGRREDGEDATVRWLDAQPAKSVVYVALGSEVPLGVEKVHELALGLELAGTRFLWALRKPTGVSDADLLPAGFEERTRGRGVVATRWVPQMSILAHAAVGAFLTHCGWNSTIEGLMFGHPLIMLPITGDQGPNARLIEAKNAGLQVARNDGDGSFDREGVAAAIRAVAVEEESSKVFQAKAKKLQEIVADMACHERYIDGFIQQLRSYKDDSGYSSSYAAAAGMHVVICPWLAFGHLLPCLDLAQRLASRGHRVSFVSTPRNISRLPPVRPALAPLVAFVALPLPRVEGLPDGAESTNDVPHDRPDMVELHRRAFDGLAAPFSEFLGTACADWVIVDSFHHWAAAAALEHKVPCAMMLLGSAEMIASIADERLEHAETESPAAAGQGRPAAAPTFEVARMKLIR	1.7	1.4
W401F: mutation to UGT enzyme of SEQ ID NO: 14 (protein) MATKNSSGMSLAERFWLTLSRSSLVVGRSCVEFEPETVPLLSTLRGKPITFLGLMPPLHEGRREDGEDATVRWLDAQPAKSVVYVALGSEVPLGVEKVHELALGLELAGTRFLWALRKPTGVSDADLLPAGFEERTRGRGVVATRWVPQMSILAHAAVGAFLTHCGWNSTIEGLMFGHPLIMLPITGDQGPNARLIEAKNAGLQVARNDGDGSFDREGVAAAIRAVAVEEESSKVFQAKAKKLQEIVADMACHERYIDGFIQQLRSYKDDSGYSSSYAAAAGMHVVICPWLAFGHLLPCLDLAQRLASRGHRVSFVSTPRNISRLPPVRPALAPLVAFVALPLPRVEGLPDGAESTNDVPHDRPDMVELHRRAFDGLAAPFSEFLGTACADWVIVDSFHHFAAAAALEHKVPCAMMLLGSAEMIASIADERLEHAETESPAAAGQGRPAAAPTFEVARMKLIR	1.3	1.3
A79P: mutation to UGT enzyme of SEQ ID NO: 14 (protein) MATKNSSGMSLAERFWLTLSRSSLVVGRSCVEFEPETVPLLSTLRGKPITFLGLMPPLHEGRREDGEDATVRWLDAQPPKSVVYVALGSEVPLGVEKVHELALGLELAGTRFLWALRKPTGVSDADLLPAGFEERTRGRGVVATRWVPQMSILAHAAVGAFLTHCGWNSTIEGLMFGHPLIMLPITGDQGPNARLIEAKNAGLQVARNDGDGSFDREGVAAAIRAVAVEEESSKVFQAKAKKLQEIVADMACHERYIDGFIQQLRSYKDDSGYSSSYAAAAGMHVVICPWLAFGHLLPCLDLAQRLASRGHRVSFVSTPRNISRLPPVRPALAPLVAFVALPLPRVEGLPDGAESTNDVPHDRPDMVELHRRAFDGLAAPFSEFLGTACADWVIVDSFHHWAAAAALEHKVPCAMMLLGSAEMIASIADERLEHAETESPAAAGQGRPAAAPTFEVARMKLIR	1.4	1.3
H400Y: mutation to UGT enzyme of SEQ ID NO: 14 (protein) MATKNSSGMSLAERFWLTLSRSSLVVGRSCVEFEPETVPLLSTLRGKPITFLGLMPPLHEGRREDGEDATVRWLDAQPAKSVVYVALGSEVPLGVEKVHELALGLELAGTRFLWALRKPTGVSDADLLPAGFEERTRGRGVVATRWVPQMSILAHAAVGAFLTHCGWNSTIEGLMFGHPLIMLPITGDQGPNARLIEAKNAGLQVARNDGDGSFDREGVAAAIRAVAVEEESSKVFQAKAKKLQEIVADMACHERYIDGFIQQLRSYKDDSGYSSSYAAAAGMHVVICPWLAFGHLLPCLDLAQRLASRGHRVSFVSTPRNISRLPPVRPALAPLVAFVALPLPRVEGLPDGAESTNDVPHDRPDMVELHRRAFDGLAAPFSEFLGTACADWVIVDSFHYWAAAAALEHKVPCAMMLLGSAEMIASIADERLEHAETESPAAAGQGRPAAAPTFEVARMKLIR	1.2	1.3
S323A: mutation to UGT enzyme of SEQ ID NO: 14 (protein) MATKNSSGMSLAERFWLTLSRSSLVVGRSCVEFEPETVPLLSTLRGKPITFLGLMPPLHEGRREDGEDATVRWLDAQPAKSVVYVALGSEVPLGVEKVHELALGLELAGTRFLWALRKPTGVSDADLLPAGFEERTRGRGVVATRWVPQMSILAHAAVGAFLTHCGWNSTIEGLMFGHPLIMLPITGDQGPNARLIEAKNAGLQVARNDGDGSFDREGVAAAIRAVAVEEESSKVFQAKAKKLQEIVADMACHERYIDGFIQQLRSYKDDSGYSSSYAAAAGMHVVICPWLAFGHLLPCLDLAQRLASRGHRVSFVSTPRNIARLPPVRPALAPLVAFVALPLPRVEGLPDGAESTNDVPHDRPDMVELHRRAFDGLAAPFSEFLGTACADWVIVDSFHHWAAAAALEHKVPCAMMLLGSAEMIASIADERLEHAETESPAAAGQGRPAAAPTFEVARMKLIR	1.3	1.3
A130D: mutation to UGT enzyme of SEQ ID NO: 14 (protein) MATKNSSGMSLAERFWLTLSRSSLVVGRSCVEFEPETVPLLSTLRGKPITFLGLMPPLHEGRREDGEDATVRWLDAQPAKSVVYVALGSEVPLGVEKVHELALGLELAGTRFLWALRKPTGVSDADLLPDGFEERTRGRGVVATRWVPQMSILAHAAVGAFLTHCGWNSTIEGLMFGHPLIMLPITGDQGPNARLIEAKNAGLQVARNDGDGSFDREGVAAAIRAVAVEEESSKVFQAKAKKLQEIVADMACHERYIDGFIQQLRSYKDDSGYSSSYAAAAGMHVVICPWLAFGHLLPCLDLAQRLASRGHRVSFVSTPRNISRLPPVRPALAPLVAFVALPLPRVEGLPDGAESTNDVPHDRPDMVELHRRAFDGLAAPFSEFLGTACADWVIVDSFHHWAAAAALEHKVPCAMMLLGSAEMIASIADERLEHAETESPAAAGQGRPAAAPTFEVARMKLIR	1.4	1.3
